Measurements: patent US20140322161A1, “ANTI-IL-6 VACCINE COMPOSITION” (PEPTINOV SAS, priority 2011, published 2014)
Bridges are numbered along the chain shown (N, C = ends). BDB = bisdiazonium-benzidine, coupling agent to KLH; Gluta = glutaraldehyde, coupling agent to KLH

How the values were obtained:
hIL-6 [1] = biological target: T1, hIL-6 (Homo sapiens, UniProt P05231); test: Human IL-6 neutralization test on HEK293 cells (hIL-6 receptor, SEAP reporter) with purified IgGs from immunized rabbits; assay type: cell-based; settings: purified IgGs from rabbits immunized with 100 μg of the peptide
Procedure: New Zealand rabbits free from specific pathogenic organisms (n=1 per peptide) were immunized with 100 μg of peptides hP1, hP2, hP3, hP4 and hP6 derived from human IL-6 by five immunizations with CFA/IFA on D0, D14, D28, D56 and J70. The neutralizing ability of the purified IgGs, derived from the serum of each rabbit, was tested in a human IL-6 neutralization test. This test is carried out on HEK293 cells (Human Embryonic Kidney cells) transfected with the gene encoding the human IL-6 receptor and the secreted embryonic alkaline phosphatase (SEAP) reporter gene (Supplier: Invivogen). The latter is then secreted in a dose-dependent manner in response to the human IL-6.
Plating (D0): seed a flat-bottom 96-well plate, treated for cell culture with 50,000 cells per well in 100 μL of neutralization medium. (DMEM 4.5 g/L glucose, 10% v/v FCS, 2 mM L-Glutamine, 100 U/mL Penicillin/Streptomycin, 100 μg/mL of Normocin).
In parallel a so-called “pre-incubation” plate is prepared with the desired concentration of human IL-6, rabbit antibodies and commercial anti-hIL-6 antibodies used as a positive control, all in a final volume of 200 μL of neutralization medium.
The pre-incubation plate is left at 37° C. for 2 hours. 100 μL per well is then transferred to the corresponding wells of the plate containing the cells, then the latter is incubated with 5% CO2 at 37° C. for 24 hours.
Development (D1): Fill a flat-bottom 96-well plate with 180 μL per well of QUANTI-Blue (InVivoGen, CA, USA). Add 20 μL of supernatant from the plate treated with IL-6. Incubate with 5% CO2 at 37° C. for 3 hours. Determine the quantity of secreted alkaline phosphatase using a spectrophotometer set at 620 nm.

Cynomolgus monkeys = test: Delayed-type hypersensitivity against tetanus toxoid in immunized Cynomolgus monkeys; assay type: in vivo, Cynomolgus monkey; settings: tetanus toxoid challenge at d90, compared to the KLH group, FIG. 8
Procedure: Briefly, the TTx vaccine (Sanofi-Pasteur, solution of 0.5 ml comprising 40 IU of Tetanus Toxoid and 0.6 mg of aluminium hydroxide) was administered intramuscularly at d59 in the thigh. Then an intradermic challenge was performed at d90 in two injection sites in the back of the monkey.
Clinical features of the cutaneous reaction were evaluated once a day for each animal before the challenge and then 24 h, 48 h and 72 h after the challenge. Each injection site was monitored for the incidence, grade and duration of three parameters (erythema, thickening, nodules) and a cumulative clinical score of delayed-type hypersensitivity (DTH) comprising these three parameters was established for each group.

hIL-6 [2] = biological target: T1, hIL-6; test: ELISA of sera from Cynomolgus monkeys immunized with hP2 for anti hIL-6 antibodies; assay type: in vivo, Cynomolgus monkey
Procedure: Four Cynomolgus monkeys were immunized intra-muscularly at day 0 with 150 μg of the cyclized hP2 peptide derived from hIL-6 previously described coupled to the protein carrier KLH, and then emulsified with the ISA51 adjuvant (Seppic).
Boosts were performed at d15, d30, d45 with an additional boost at d76. Blood samples were collected every two weeks until the end of the experiment (d120). These sera were tested in ELISA to evaluate the production of anti hIL-6 antibodies. A control group of four monkeys immunized with KLH only was used.

murine IL-6 = biological target: T2, murine IL-6 (Mus musculus, UniProt P08505); test: Murine IL-6 neutralization test on murine B9 hybridomas with purified IgGs from immunized rabbits; assay type: cell-based; settings: purified IgGs from rabbits immunized with the peptide; B9 hybridoma proliferation, XTT
T2 sequence (P08505 25-211): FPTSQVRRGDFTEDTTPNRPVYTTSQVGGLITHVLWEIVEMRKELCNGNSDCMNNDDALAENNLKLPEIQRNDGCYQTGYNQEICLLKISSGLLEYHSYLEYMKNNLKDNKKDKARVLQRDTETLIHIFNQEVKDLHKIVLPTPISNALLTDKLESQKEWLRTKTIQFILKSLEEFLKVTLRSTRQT
Procedure: The neutralizing ability of purified IgGs based on serum from rabbits immunized with the peptides mP1, mP2, mP3, mP4, mP5 and mP6 respectively, was tested in a murine IL-6 neutralization test. This test is based on the fact that murine B9 hybridomas proliferate in a dose-dependent manner in response to murine IL-6 (Brakenhoff et al. (1987) J. Immunol. 139:4116-21).
Plating (D0): seed a flat-bottom 96-well plate, treated for cell culture with 5000 cells per well in 50 μL of neutralization medium. (RPMI 1640 without phenol red, 5% v/v Foetal Calf Serum (FCS), 2 mM L-Glutamine, 100 U/mL Penicillin/Streptomycin, […] of β-Mercaptoethanol)
In parallel a so-called “pre-incubation” plate is produced with the desired concentration of murine IL-6, samples and commercial anti-mIL-6 antibodies used as positive control, all in a final volume of 100 μL of neutralization medium.
The pre-incubation plate is left at 37° C. for 2 hours. 50 μL per well is then transferred to the corresponding wells of the plate containing the cells, then the latter is incubated with 5% CO2 at 37° C. for 96 hours.
Development (D4): Add 50 μL of a solution of XTT (for 2,3-bis-(2-methoxy-4-nitro-5-sulfophenyl)-2H-tetrazolium-5-carboxanilide)—0.5% electron coupling reagent to each well. Leave to incubate at 37° C. for 7 hours. Reading of the optical density on a spectrophotometer set at 450 nm.

C57BL/6 mice = test: Murine model of chronic colitis induced by DSS after vaccination; assay type: in vivo; settings: for histological colitis score: D67 colon distal biopsies, compared with control mice treated with PBS or KLH alone, FIG. 3; for disease activity index (DAI) / reduction of the length of the colon: DSS-treated C57BL/6 mice; for disease activity index (DAI): 100 μg peptide coupled with KLH, compared with the control groups, FIG. 2; for reduction of the length of the colon: compared with control mice, FIG. 4
Description: Chronic colitis induced by Dextran Sodium Sulfate (DSS) is a well-known model of chronic inflammatory disease reproducing the main characteristics of the human diseases (Alex et al. (2009) Inflamm. Bowel Dis. 15:341-352).
Briefly, groups of 6 C57BL/6 mice (Charles River Laboratories, L'Arbresle, France) were formed. The mice were immunized 4 times (once with CFA and three times with IFA) every 15 days with different vaccine preparations. The mice were respectively immunized with PBS (DSS/PBS group), 50 μg per mouse of KLH (DSS/KLH group), and 100 μg per mouse of peptide mP1, mP2, mP3, mP4, mP5 and mP6 coupled with KLH (DSS/mIL-6 peptide group). A control H2O group was also included. Four days after the first booster, colitis was induced by absorption of Dextran Sodium Sulfate (DSS) in water (2%) over 7 days followed by 7 days of water. Three DSS/water cycles were thus carried out, after which the mice received water until the end of the protocol. The clinical signs of the disease appear approximately on the fifth day after the start of treatment with DSS (D26 of the protocol). The development of the disease is measured from the start of the first DSS cycle up to the end of the protocol by a disease activity index (DAI) including weight loss, the presence of blood in the stools and the texture of the stools. The clinical scores are determined as follows: for the texture of the stools a score of 0 (hard stools) to 4 (diarrhoea), for the presence of blood in the stools a score of 0 (absence) to 4 (macroscopic blood), and weight loss a score of 0 (<1%) to 4 (>20%). Each mouse is thus assigned a clinical score with a maximum score of 12.
Then, on D67, the mice are killed by cervical dislocation. The histological sections from colon distal biopsies are scored blind, according to the severity of the inflammation (0: absence, 1: slight, 2: moderate, 3: severe), the extent of the inflammation (0: absence, 1: mucosal, 2: mucosal and sub-mucosal, 3: transmural), crypt damage (0: absence, 1: one-third damaged, 2: ⅔ damaged, 3: only the surface of the epithelium intact, 4: total destruction of the crypts and epithelium). Each mouse is thus assigned a histological score with a maximum score of 10.

IL-6Rα receptor = biological target: T3, IL-6Rα receptor (Homo sapiens, UniProt P08887); settings: adults; cited from earlier work
T3 sequence (P08887 20-468): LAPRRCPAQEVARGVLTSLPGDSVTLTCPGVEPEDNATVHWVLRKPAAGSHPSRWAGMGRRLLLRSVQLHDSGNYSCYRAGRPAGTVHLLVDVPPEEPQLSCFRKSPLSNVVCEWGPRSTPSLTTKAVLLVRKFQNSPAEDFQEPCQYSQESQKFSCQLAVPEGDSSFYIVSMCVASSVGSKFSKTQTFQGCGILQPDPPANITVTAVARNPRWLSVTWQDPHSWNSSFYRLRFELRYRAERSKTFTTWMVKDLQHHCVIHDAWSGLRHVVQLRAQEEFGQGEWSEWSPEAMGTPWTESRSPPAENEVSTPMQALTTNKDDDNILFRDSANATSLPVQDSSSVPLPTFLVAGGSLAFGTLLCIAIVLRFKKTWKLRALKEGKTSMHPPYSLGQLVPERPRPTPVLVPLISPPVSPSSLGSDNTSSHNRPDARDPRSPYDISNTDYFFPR

T1 sequence (P05231 30-212): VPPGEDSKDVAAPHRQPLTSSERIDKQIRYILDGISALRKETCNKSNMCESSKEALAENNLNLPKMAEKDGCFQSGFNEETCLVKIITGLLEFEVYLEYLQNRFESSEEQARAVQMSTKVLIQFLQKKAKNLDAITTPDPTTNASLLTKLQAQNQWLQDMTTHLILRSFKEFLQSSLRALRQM

| Substance | neutralization of the biological activity of human IL-6 (hIL-6 [1]) | neutralization of the biological activity of murine IL-6 (murine IL-6) | histological colitis score (C57BL/6 mice) | disease activity index (DAI) (C57BL/6 mice) | reduction of the length of the colon (C57BL/6 mice) | further results |
| --- | --- | --- | --- | --- | --- | --- |
| Acetyl +T177KCQAQNQWLQDM189C-Y-BDB (Ac-TKCQAQNQWLQDMCY-{BDB}; disulfide 3-14 (inferred)) [hP6, peptide derived from hIL-6 region 177-189] | neutralize the biological activity of the human IL-6 in a dose-dependent manner |  |  |  |  |  |
| Acetyl+C78ESSKEALAENNLNLPK94C-Y-BDB (Ac-CESSKEALAENNLNLPKCY-{BDB}; disulfide 1-18 (inferred); also: coupled to KLH via BDB) [hP2, peptide derived from hIL-6 region 78-94] | neutralize the biological activity of the human IL-6 in a dose-dependent manner |  |  |  |  | DTH response (cumulative clinical score) (Cynomolgus monkeys): marked attenuation of the DTH response; peak of anti-hIL-6 antibody titer kinetics (hIL-6 [2]; Cynomolgus monkeys immunized with hP2, in average): ~60 days; development of antibodies against hIL-6 (ELISA) (hIL-6 [2]; four Cynomolgus monkeys, 150 μg cyclized hP2 coupled to KLH in ISA51 i.m., FIG. 7): developed antibodies against hIL-6 |
| Acetyl+CN154QEVKDLHKIVLPTP168C-Y-BDB [mP5] |  | do not neutralize the activity of murine IL-6 |  |  |  |  |
| Acetyl+D176KCESQKEWLRTK188C-Y-BDB [mP6] |  | neutralize the biological activity of murine IL-6 in a dose-dependent manner | significantly reduced histological score | significantly reduced disease activity index | significantly less severe reduction of the colon |  |
| BDB-Y-CE125FMKNNLKDNKKDKAR140C+Amide [mP4] |  | neutralize the biological activity of murine IL-6 in a dose-dependent manner | significantly reduced histological score | significantly reduced disease activity index | significantly less severe reduction of the colon |  |
| BDB-Y-CE127FLQNRFESSEEQAR141C+ Amide ({BDB}-YCEFLQNRFESSEEQARC-NH2; disulfide 2-18 (inferred)) [hP4, peptide derived from hIL-6 region 127-141] | neutralize the biological activity of the human IL-6 in a dose-dependent manner |  |  |  |  |  |
| BDB-Y-E61IVEMRKELCNGNSD75C+Amide ({BDB}-YEIVEMRKELCNGNSDC-NH2; disulfide 11-17 (inferred)) [mP1, peptide derived from mIL-6 region 61-75] |  | neutralize the biological activity of murine IL-6 in a dose-dependent manner | significantly reduced histological score | significantly reduced disease activity index | significantly less severe reduction of the colon |  |
| BDB-Y-G63ISALRKETCNKSNMC78+Amide ({BDB}-YGISALRKETCNKSNMC-NH2; disulfide 11-17 (inferred)) [hP1, peptide derived from hIL-6 region 63-78] | neutralize the biological activity of the human IL-6 in a dose-dependent manner |  |  |  |  |  |
| Gluta-C99YQTGYNQEIC109+Amide (Gluta-CYQTGYNQEIC-NH2; disulfide 1-11 (inferred)) [mP3, peptide derived from mIL-6 region 99-109] |  | neutralize the biological activity of murine IL-6 in a dose-dependent manner | significantly reduced histological score | significantly reduced disease activity index | significantly less severe reduction of the colon |  |
| Gluta-C101FQSGFNEETC111 +Amide (Gluta-CFQSGFNEETC-NH2; disulfide 1-11 (inferred)) [hP3, peptide derived from hIL-6 region 101-111] | neutralize the biological activity of the human IL-6 in a dose-dependent manner |  |  |  |  |  |
| Tocilizumab: humanized monoclonal antibody directed against the IL-6Rα receptor |  |  |  |  |  | clinical effectiveness in rheumatoid arthritis (IL-6Rα receptor): clinically effective |
